In assay [1] the target is T1, rHuman IGF-1 sR, (IGF-1 sR), CF (R&D Systems Cat#391-GR) (human, UniProt P08069 31-932).
T1 construct: Bought from R&D Systems and called a soluble receptor; also called insulin-like growth factor-1 soluble receptor
Put plainly: MSD multispot ECL, antigen spotted on plate, Fab 22 nM; blank spot 289.

Assay [2] has as its target T2, rHuman Notch-1/Fc Chimera, CF (R&D Systems Cat#3647-TK) (human, UniProt P46531 19-526).
T2 construct: Bought from R&D Systems; not shown: Fc of the bought chimera
Described as above.

For assay [3], the target named is T3, Recombinant Human DLL4 (R&D Systems Cat#1506-D4/CF) (human, UniProt Q9NR61 27-524).
T3 construct: Bought from R&D Systems; also called rHuman DLL4; delta-like protein 4
The assay is described as above.

For assay [4], the target named is T4, rHuman Erythropoietin R/Fc Chimera, CF (R&D Systems Cat#963-ER) (human, UniProt P19235 25-250).
T4 construct: Bought from R&D Systems; also called EPO R/Fc; Epo R/Fc chimera; not shown: Fc of the bought chimera
T4 sequence (looked up): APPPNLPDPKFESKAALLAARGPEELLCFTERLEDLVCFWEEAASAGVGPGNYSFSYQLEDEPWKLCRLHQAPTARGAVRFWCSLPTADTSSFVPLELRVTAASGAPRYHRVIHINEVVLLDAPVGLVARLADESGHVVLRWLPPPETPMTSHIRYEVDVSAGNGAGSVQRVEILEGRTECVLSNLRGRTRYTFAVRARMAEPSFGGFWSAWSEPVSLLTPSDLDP
Described as above.

For assay [5], the target named is T5, rHuman Notch-1/Fc Chimera, CF (R&D Systems Cat#3647-TK) (human, UniProt P46531 19-526).
T5 construct: Bought Fc chimera; Fc part of the bought chimera not given
Put plainly: Multispot ECL (MSD) titration; antigen spotted on plate; Fab 1570 nM; blank spot 866.

Assay [6] concerns the target T6, rHuman P-Cadherin/Fc Chimera, CF (R&D Systems Cat#861-PC) (human, UniProt P22223 108-654).
T6 construct: Bought Fc chimera; Fc part of the bought chimera not given
The description is as above.

In assay [7] the target is T7, rHuman ErbB2/Fc Chimera, CF (R&D Systems Cat#1129-ER) (human, UniProt P04626 23-652).
T7 construct: Bought Fc chimera; also called human epidermal growth factor 2 receptor; Fc part of the bought chimera not given
The description is as above.

Assay [8] addresses T8, rHuman IGF-1 sR (IGF-1 sR), CF (R&D Systems Cat#391-GR) (human, UniProt P08069 31-932).
T8 construct: Bought soluble receptor; also called insulin-like growth factor-1 soluble receptor
The assay is described as above.

The target in assay [9] is T9, Recombinant Human DLL4 (R&D Systems Cat#1506-D4/CF) (human, UniProt Q9NR61 27-524).
T9 construct: Bought recombinant protein; also called delta-like protein 4; rHuman DLL4
The description is as above.

In assay [10] the target is T10, rHuman HGF R/c-MET/Fc Chimera, CF (R&D Systems Cat#358-MT/CF) (human, UniProt P08581 25-932).
T10 construct: Bought Fc chimera; also called HGF R/Fc; hepatocyte growth factor receptor; Fc part of the bought chimera not given
T10 sequence (P08581 25-932, change not shown): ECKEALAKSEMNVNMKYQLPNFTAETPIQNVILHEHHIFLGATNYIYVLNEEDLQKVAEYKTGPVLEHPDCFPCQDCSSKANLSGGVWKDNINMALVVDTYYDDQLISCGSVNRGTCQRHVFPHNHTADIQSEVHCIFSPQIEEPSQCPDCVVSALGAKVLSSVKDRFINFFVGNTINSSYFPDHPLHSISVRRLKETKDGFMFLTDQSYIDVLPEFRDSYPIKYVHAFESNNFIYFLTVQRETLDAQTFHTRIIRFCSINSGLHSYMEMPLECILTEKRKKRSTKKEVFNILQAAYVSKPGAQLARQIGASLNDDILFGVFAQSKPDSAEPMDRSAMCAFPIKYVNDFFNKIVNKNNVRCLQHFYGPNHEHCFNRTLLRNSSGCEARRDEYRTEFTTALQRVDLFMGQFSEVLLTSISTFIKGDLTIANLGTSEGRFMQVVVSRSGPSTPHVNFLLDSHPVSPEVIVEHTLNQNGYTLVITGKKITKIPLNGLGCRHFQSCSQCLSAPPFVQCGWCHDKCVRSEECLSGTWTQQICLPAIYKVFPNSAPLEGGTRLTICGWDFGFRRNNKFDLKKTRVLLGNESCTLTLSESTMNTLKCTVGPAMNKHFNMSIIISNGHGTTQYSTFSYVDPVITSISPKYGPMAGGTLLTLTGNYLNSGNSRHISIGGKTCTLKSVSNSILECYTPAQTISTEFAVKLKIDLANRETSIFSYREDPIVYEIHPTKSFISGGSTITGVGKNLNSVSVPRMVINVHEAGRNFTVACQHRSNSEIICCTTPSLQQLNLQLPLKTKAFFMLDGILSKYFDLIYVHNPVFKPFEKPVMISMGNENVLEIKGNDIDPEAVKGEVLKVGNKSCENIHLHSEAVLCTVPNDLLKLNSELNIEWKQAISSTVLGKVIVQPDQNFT
The description is as above.

The target of assay [11] is T11, rHuman Erythropoietin R/Fc Chimera, CF (R&D Systems Cat#963-ER) (human, UniProt P19235 25-250).
T11 construct: Bought Fc chimera; also called EPO R/Fc; EPO R; Fc part of the bought chimera not given
T11 sequence (looked up): T4 sequence (looked up)
Described as above.

Assay [12] deals with T12, rHuman CD44/Fc Chimera, CF (R&D Systems Cat#3660-CD) (human, UniProt P16070 21-220).
T12 construct: Bought Fc chimera; Fc part of the bought chimera not given
The description is as above.

In assay [13] the target is T13, rHuman IGF-1 sR, CF (R&D Systems Cat#391-GR) (human, UniProt P08069 31-932).
T13 construct: Bought soluble receptor; The column head prints only 'IGF-1'; also called insulin-like growth factor-1 soluble receptor
Put plainly: ECL multispot (MSD) assay, spotted antigen; Fab 2.00 (head prints uM).

Assay [14] concerns the target T14, Recombinant Human DLL4 (R&D Systems Cat#1506-D4/CF) (human, UniProt Q9NR61 27-524).
T14 construct: Bought recombinant protein; also called delta-like protein 4
The description is as above.

In assay [15] the target is T15, rHuman Notch-1/Fc Chimera, CF (R&D Systems Cat#3647-TK) (human, UniProt P46531 19-526).
T15 construct: Bought recombinant protein; Fc part of the bought chimera not given
The description is as above.

For assay [16], the target named is T16, rHuman Erythropoietin R/Fc Chimera, CF (R&D Systems Cat#963-ER) (human, UniProt P19235 25-250).
T16 construct: Bought recombinant protein; also called EPO R; EPO R/Fc; Fc part of the bought chimera not given
T16 sequence (looked up): T4 sequence (looked up)
The assay is described as above.

Assay [17] addresses T17, rHuman EGF R/Fc Chimera, CF (R&D Systems Cat#344-ER) (human, UniProt P00533 25-645).
T17 construct: Bought recombinant protein; Fc part of the bought chimera not given
The assay is described as above.

In assay [18] the target is T18, rHuman CD44/Fc Chimera, CF (R&D Systems Cat#3660-CD) (human, UniProt P16070 21-220).
T18 construct: Bought recombinant protein; Fc part of the bought chimera not given
The assay is described as above.

B1: Fab VH1-46_IGHD3-10*01_IGHJ4*01 & B3_IGKJ1*01 (Fab, V domains shown)
VH: QVQLVQSGAEVKKPGASVKVSCKASGYTFTSYYMHWVRQAPGQGLEWMGIINPSGGSTSYAQKFQGRVTMTRDTSTSTVYMELSSLRSEDTAVYYCAREYYYGSGSYYNDYFDYWGQGTLVTVSS
VL: not shown
notes: Tested as a Fab made in E. coli; VH was cloned into Plasmid A (CH1 constant region, His6 and Flag tags); The kappa VL was cloned into Plasmid C (kappa CL)
Take B1: the ECL signal was found to be 347 in [1], 389 in [2], 342 in assay [3] and 2240 in [4].

B2: Fab VH1-46_IGHD3-10*01_IGHJ4*01 & O1_IGKJ1*01 (Fab, V domains shown)
VH: B1 VH
VL: DIVMTQTPLSLPVTPGEPASISCRSSQSLLDSDDGNTYLDWYLQKPGQSPQLLIYTLSYRASGVPDRFSGSGSGTDFTLKISRVEAEDVGVYYCMQRIEFPSWTFGQGTKVEIKR
notes: Germline library Fab expressed in E. coli; VH was cloned into Plasmid A (CH1 constant region, His6 and Flag tags); The kappa VL was cloned into Plasmid C (kappa CL)
On to B2, for which the ECL signal in [5] is 1640; in assay [6], 1790; in [7] it was 1260; in assay [8], 1430; in assay [9], 2700; in assay [10], 1640. Moreover, the ECL signal in assay [11] is 6120; in [12], 1380.

B3: Fab VH5-51_IGHD5-18*01>3_IGHJ4*01 G100K/G104T & V3-4_IGLJ1*01 (Fab, V domains shown)
VH: EVQLVQSGAEVKKPGESLKISCKGSGYSFTSYWIGWVRQMPGKGLEWMGIIYPGDSDTRYSPSFQGQVTISADKSISTAYLQWSSLKASDTAMYYCARRKYSYTYDYFDYWGQGTLVTVSS
VL: QTVVTQEPSFSVSPGGTVTLTCGLSSGSVSTSYYPSWYQQTPGQAPRTLIYSTNTRSSGVPDRFSGSILGNKAALTITGAQADDESDYYCVLYMGSGISYVFGTGTKVTVL
notes: Tested as a Fab; The constant parts are the same as for the parent Fab (CH1 with His6/Flag tags, lambda CL); also called KT double mutant; H:KT
For the molecule B3, the ECL signal/noise ratio was 3.7 in assay [13]; 72.7 in [14]; 1.9 in assay [15]; 4.1 in assay [16]; 3.8 in assay [17]; 3.5 in [18].
